Experiments:
[1] = biological target: T1, GFP‐tagged human NOP receptor in HEK cells (HEK_(hNOP‐GFP)) (human, UniProt P41146 1-370); assay: confocal microscopy of a fluorescent ligand on live cells; N/OFQ_(ATTO594) added cumulatively (1 pM-100 nM) to HEK_(hNOP) or HEK_(hNOP-GFP) cells on coverslips, 5 min at 4°C in Krebs buffer pH 7.4, washed, imaged with the 594 nm laser; corrected total cell fluorescence; saturation curve; conditions: one partner purified
T1 construct: nociceptin/orphanin FQ (N/OFQ) peptide receptor (NOP), human, GFP-tagged, recombinant in HEK cells; source: HEK cells expressing GFP-tagged NOP; live cells on coverslips (confocal, FRET) and radioligand displacement

[2] = biological target: T2, human N/OFQ peptide (NOP) receptor, recombinant in HEK cells (HEK_(hNOP)) (human, UniProt P41146 1-370); assay: as above; conditions: one partner purified
T2 construct: nociceptin/orphanin FQ (N/OFQ) peptide receptor (NOP), human, recombinant in HEK cells, no GFP; also called HEKNOP; source: HEK cells expressing the recombinant NOP receptor; live cells on coverslips (confocal) and radioligand displacement

[3] = biological target: T3, human N/OFQ peptide (NOP) receptor, recombinant in CHO cells (CHO_(hNOP)) (human, UniProt P41146 1-370); assay: radioligand binding; displacement of ~0.8 nM [3H]-N/OFQ from CHO_(hNOP) membranes (20-40 ug protein) by 1 pM-10 uM ligand; 50 mM Tris-HCl pH 7.4 with 0.5% BSA, room temperature, 1 h, vacuum filtration; non-specific binding with 1 uM N/OFQ; conditions: one partner purified
T3 construct: nociceptin/orphanin FQ (N/OFQ) peptide receptor (NOP), human, recombinant in CHO cells; used as cell membranes; source: CHO cells, stably transfected, cell membranes

[4] = biological target: T1, GFP‐tagged human NOP receptor in HEK …; assay: cell-based or functional assay
[5] = biological target: T1, GFP‐tagged human NOP receptor in HEK …; assay: radioligand binding; displacement of [3H]-N/OFQ in HEK_(hNOP) and HEK_(hNOP-GFP) cells, room temperature; conditions: one partner purified
[6] = biological target: T2, human N/OFQ peptide (NOP) receptor, …; assay: as above; conditions: one partner purified

T1 sequence (P41146 whole entry): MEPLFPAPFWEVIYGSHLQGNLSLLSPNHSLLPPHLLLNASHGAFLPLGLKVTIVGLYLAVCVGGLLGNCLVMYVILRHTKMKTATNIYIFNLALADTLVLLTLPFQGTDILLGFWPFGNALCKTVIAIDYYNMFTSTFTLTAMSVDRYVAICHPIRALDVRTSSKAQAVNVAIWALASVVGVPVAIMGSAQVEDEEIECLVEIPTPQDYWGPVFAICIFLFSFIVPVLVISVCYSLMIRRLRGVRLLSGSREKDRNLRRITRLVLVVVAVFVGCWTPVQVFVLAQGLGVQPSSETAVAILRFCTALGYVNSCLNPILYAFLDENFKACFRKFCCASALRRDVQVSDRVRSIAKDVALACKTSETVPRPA
T2 sequence (P41146 whole entry): as above
T3 sequence (P41146 whole entry): as above

pKd [1]: 8.53
pKd [2]: 9.51
pKi [3]: 9.21
pEC50, inhibition of forskolin-stimulated cAMP formation in HEK_(hNOP-GFP) cells, 0.1 pM-1 μM, 37°C, 15 min [4]: 9.73
pKi [5]: 8.98
pKi [6]: 9.14
Binder: FGGFTGARKSARKLANQC (ATTO 594 on Cys18; C-terminal amide (NH2)) [[Cys(ATTO 594)^18]N/OFQ‐NH2]
